For this experiment, the target named is MCL-1 (Homo sapiens, UniProt Q07820). The experiment can be described thus: fluorescence anisotropy direct titration.

Ends that are not written are not given here. * marks the point of attachment. FITC = O=C1OC2(c3ccc(O)cc3Oc3cc(O)ccc32)c2ccc(NC(=S)*)cc21; Ahx = NCCCCCC(=O)O

MCL-1, sequence (Q07820 whole entry): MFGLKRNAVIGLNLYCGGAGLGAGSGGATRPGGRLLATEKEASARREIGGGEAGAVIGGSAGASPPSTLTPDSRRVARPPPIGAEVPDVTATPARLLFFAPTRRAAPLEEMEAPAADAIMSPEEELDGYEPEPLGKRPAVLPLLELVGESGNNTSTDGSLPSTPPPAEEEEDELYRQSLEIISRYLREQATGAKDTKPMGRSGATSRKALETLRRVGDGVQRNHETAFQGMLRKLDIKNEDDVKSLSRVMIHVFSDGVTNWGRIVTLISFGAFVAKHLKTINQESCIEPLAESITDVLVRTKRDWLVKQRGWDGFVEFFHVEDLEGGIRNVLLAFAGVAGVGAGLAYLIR

With {FITC-Ahx}-TRSPLFIFMRR [FITC-Ahx-BIM75–85 75-85], binding was characterised by a dissociation constant (Kd) of 204 nM.

As a reminder, the Kd is a measure of binding affinity in units of concentration. Read a low Kd as tighter binding.

The values above are taken from paper PMC8495968 (2021).
